125 sequences from the supplement of paper PMC9112550, “Optimization of the antimicrobial peptide Bac7 by deep mutational scanning” (BMC Biology, 2022) can be followed below.

In this series the test system is Escherichia coli TOP10. Description: shrunken log2 fold change of peptide-encoding DNA abundance (4.5 h post-induction vs induction); higher = less antimicrobial activity (less host growth inhibition). As to conditions: time post-induction: 4.5 h; library: site-saturation at positions 5, 18, 19, 20.
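Further: peptides expressed intracellularly from a pBAD plasmid library in pooled LB shake-flask culture, induced with 0.3% L-arabinose, DNA abundance read by NGS, three biological replicates, DESeq2 with apeglm shrinkage.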

With RRIRYRPPRLPRPRPRPCPAPRP, the “shrunken log2 fold change” value is -0.772.

For the sequence RRIRLRPPRLPRPRPRPMISPRP, the “shrunken log2 fold change” value was 0.00361. The value for RRIRPRPPRLPRPRPRPSESPRP was 0.000106; that for RRIRERPPRLPRPRPRPLHYPRP was -0.249. The figure for RRIRFRPPRLPRPRPRPIKLPRP is -0.825.

As to RRIRHRPPRLPRPRPRPWCDPRP, the “shrunken log2 fold change” value was -0.559. The value for RRIRWRPPRLPRPRPRPYMGPRP was -0.106. The value for RRIRGRPPRLPRPRPRPNTVPRP was -0.0703; that for RRIRARPPRLPRPRPRPEPQPRP was 0.862. The value for RRIRQRPPRLPRPRPRPGMAPRP was 0.0366; that for RRIRVRPPRLPRPRPRPQWVPRP was -0.222; that for RRIRVRPPRLPRPRPRPQSCPRP was -0.342. In the case of RRIRTRPPRLPRPRPRPGDLPRP, the “shrunken log2 fold change” value is -0.0395. On to RRIRHRPPRLPRPRPRPHMVPRP, for which the “shrunken log2 fold change” value was -1.01.

RRIRCRPPRLPRPRPRPTPLPRP: the “shrunken log2 fold change” value stood at 0.522. The figure for RRIRERPPRLPRPRPRPHFPPRP is -0.151.

For the sequence RRIRRRPPRLPRPRPRPYMVPRP, the “shrunken log2 fold change” value was -0.361. In the case of RRIRGRPPRLPRPRPRPVNWPRP, the “shrunken log2 fold change” value stood at 0.302. The value for RRIRHRPPRLPRPRPRPSKFPRP was -0.64. The value for RRIRLRPPRLPRPRPRPNIAPRP was -0.0706; that for RRIRTRPPRLPRPRPRPVHPPRP was -0.579; that for RRIRARPPRLPRPRPRPYEMPRP was -0.0385. As to RRIRWRPPRLPRPRPRPQLEPRP, the “shrunken log2 fold change” value is 0.0296.

RRIRLRPPRLPRPRPRPHLSPRP: the “shrunken log2 fold change” value was -0.0728.

RRIRYRPPRLPRPRPRPFWKPRP: the “shrunken log2 fold change” value was 0.226.

As for RRIRNRPPRLPRPRPRPMPAPRP, the “shrunken log2 fold change” value was -0.142. Regarding RRIRVRPPRLPRPRPRPCMEPRP, the “shrunken log2 fold change” value is -1.

Consider RRIRGRPPRLPRPRPRPLKNPRP, for which the “shrunken log2 fold change” value came to 0.459. In the case of RRIRRRPPRLPRPRPRPNTHPRP, the “shrunken log2 fold change” value was -0.126. The value for RRIRNRPPRLPRPRPRPCHVPRP was 0.0112; that for RRIRPRPPRLPRPRPRPMVSPRP was -0.0725. Regarding RRIRDRPPRLPRPRPRPGIIPRP, the “shrunken log2 fold change” value is -0.171. The value for RRIRQRPPRLPRPRPRPPWLPRP was 0.307; that for RRIRRRPPRLPRPRPRPWEAPRP was 0.155. The figure for RRIRARPPRLPRPRPRPVKVPRP is 0.0388; for RRIRWRPPRLPRPRPRPRFRPRP it is 0.314; for RRIRIRPPRLPRPRPRPHHVPRP it is -0.091. The figure for RRIRHRPPRLPRPRPRPNEHPRP is 0.409; for RRIRLRPPRLPRPRPRPQFMPRP it is -0.462; for RRIRSRPPRLPRPRPRPKHAPRP it is 0.143. For the sequence RRIRERPPRLPRPRPRPYEEPRP, the “shrunken log2 fold change” value is -0.636. The value for RRIRKRPPRLPRPRPRPCVSPRP was -0.376; that for RRIRPRPPRLPRPRPRPIRNPRP was -0.0919; that for RRIRNRPPRLPRPRPRPYCAPRP was -1.05. Consider RRIRARPPRLPRPRPRPGNHPRP, for which the “shrunken log2 fold change” value was -0.0331.

Regarding RRIRARPPRLPRPRPRPMCKPRP, the “shrunken log2 fold change” value amounted to 0.0809. The figure for RRIRNRPPRLPRPRPRPMMKPRP is 2.77. The value for RRIRARPPRLPRPRPRPWRNPRP was -0.0929.

In the case of RRIRKRPPRLPRPRPRPDMHPRP, the “shrunken log2 fold change” value was 0.051.

On to RRIRYRPPRLPRPRPRPMHNPRP, for which the “shrunken log2 fold change” value is 0.162. The figure for RRIRIRPPRLPRPRPRPGKLPRP is -0.0215; for RRIRPRPPRLPRPRPRPYPEPRP it is -0.421.

On to RRIRVRPPRLPRPRPRPMICPRP, for which the “shrunken log2 fold change” value is -0.0606. The value for RRIRLRPPRLPRPRPRPPPYPRP was 0.388. The figure for RRIRRRPPRLPRPRPRPNWYPRP is -0.197; for RRIRMRPPRLPRPRPRPAKKPRP it is 0.209. The value for RRIRSRPPRLPRPRPRPSCYPRP was -0.511. Turning to RRIRHRPPRLPRPRPRPCIFPRP, the “shrunken log2 fold change” value is -0.597.

In the case of RRIRARPPRLPRPRPRPLYWPRP, the “shrunken log2 fold change” value is -0.194.

RRIRFRPPRLPRPRPRPSHPPRP: the “shrunken log2 fold change” value is -0.19. The figure for RRIRMRPPRLPRPRPRPYVLPRP is -0.189; for RRIRNRPPRLPRPRPRPYKKPRP it is -0.00559. RRIRARPPRLPRPRPRPWCFPRP: the “shrunken log2 fold change” value turned out to be 0.0976. The figure for RRIRWRPPRLPRPRPRPYVTPRP is -0.385; for RRIRSRPPRLPRPRPRPMWAPRP it is 0.00731.

Turning to RRIRQRPPRLPRPRPRPIKNPRP, the “shrunken log2 fold change” value was -0.186. The figure for RRIRRRPPRLPRPRPRPVYMPRP is -0.0789; for RRIRTRPPRLPRPRPRPCINPRP it is -0.686; for RRIRGRPPRLPRPRPRPYPPPRP it is -0.0824. Consider RRIRTRPPRLPRPRPRPEYMPRP, for which the “shrunken log2 fold change” value is -0.263.

Take RRIRNRPPRLPRPRPRPRPDPRP: the “shrunken log2 fold change” value is 0.0914. The figure for RRIRERPPRLPRPRPRPHKTPRP is 0.0137.

In the case of RRIRERPPRLPRPRPRPLLQPRP, the “shrunken log2 fold change” value is -0.0771. The value for RRIRFRPPRLPRPRPRPMREPRP was 1.08; that for RRIRARPPRLPRPRPRPEFEPRP was 0.75.

With RRIRHRPPRLPRPRPRPVTNPRP, the “shrunken log2 fold change” value was -0.222.

For the sequence RRIRMRPPRLPRPRPRPWCLPRP, the “shrunken log2 fold change” value was -0.208. As for RRIRIRPPRLPRPRPRPEVKPRP, the “shrunken log2 fold change” value amounted to 0.135. The value for RRIRARPPRLPRPRPRPSRYPRP was 0.0768. Turning to RRIRGRPPRLPRPRPRPAAIPRP, the “shrunken log2 fold change” value stood at 0.953. The figure for RRIRKRPPRLPRPRPRPPYLPRP is 0.0134; for RRIRDRPPRLPRPRPRPWDAPRP it is 0.207. The figure for RRIRIRPPRLPRPRPRPWGVPRP is -0.888.

Turning to RRIRKRPPRLPRPRPRPCHPPRP, the “shrunken log2 fold change” value is -0.336. For RRIRQRPPRLPRPRPRPQPDPRP, the “shrunken log2 fold change” value is -0.00546.

On to RRIRMRPPRLPRPRPRPIFLPRP, for which the “shrunken log2 fold change” value was -0.227. Consider RRIRCRPPRLPRPRPRPAFMPRP, for which the “shrunken log2 fold change” value came out at 0.117. The value for RRIRSRPPRLPRPRPRPLGKPRP was 2.2; that for RRIRERPPRLPRPRPRPLRLPRP was 0.304; that for RRIRSRPPRLPRPRPRPRRVPRP was 0.452. The value for RRIRMRPPRLPRPRPRPQFCPRP was 0.0736; that for RRIRTRPPRLPRPRPRPNRAPRP was -0.244; that for RRIRWRPPRLPRPRPRPWQDPRP was -0.00695. The value for RRIRVRPPRLPRPRPRPFTWPRP was -0.327; that for RRIRFRPPRLPRPRPRPHHHPRP was -0.678. Consider RRIRLRPPRLPRPRPRPMVSPRP, for which the “shrunken log2 fold change” value was -0.0017. The figure for RRIRARPPRLPRPRPRPKWEPRP is 0.0262; for RRIRSRPPRLPRPRPRPRHKPRP it is -0.262; for RRIRGRPPRLPRPRPRPVYVPRP it is 0.0272. As to RRIRCRPPRLPRPRPRPMGHPRP, the “shrunken log2 fold change” value was -0.262.

Turning to RRIRDRPPRLPRPRPRPLEHPRP, the “shrunken log2 fold change” value was -0.164. Turning to RRIRGRPPRLPRPRPRPNVEPRP, the “shrunken log2 fold change” value is 0.183.

In the case of RRIRERPPRLPRPRPRPDKLPRP, the “shrunken log2 fold change” value was -1.81. The value for RRIRVRPPRLPRPRPRPRCEPRP was 0.133; that for RRIRLRPPRLPRPRPRPICWPRP was -0.0336; that for RRIRHRPPRLPRPRPRPPFVPRP was 0.0135. The value for RRIRVRPPRLPRPRPRPTIGPRP was 0.178; that for RRIRDRPPRLPRPRPRPSKYPRP was -0.455; that for RRIRCRPPRLPRPRPRPWDSPRP was -0.36.

Consider RRIRYRPPRLPRPRPRPIRTPRP, for which the “shrunken log2 fold change” value was -0.258. The value for RRIRGRPPRLPRPRPRPHVLPRP was -0.00476. The value for RRIRRRPPRLPRPRPRPLEQPRP was 0.166; that for RRIRYRPPRLPRPRPRPNITPRP was -1.03. The value for RRIRMRPPRLPRPRPRPWIFPRP was 0.0735; that for RRIRVRPPRLPRPRPRPFSSPRP was -0.068. In the case of RRIRFRPPRLPRPRPRPMIDPRP, the “shrunken log2 fold change” value was -0.209. The value for RRIRARPPRLPRPRPRPPPSPRP was 1.26; that for RRIRWRPPRLPRPRPRPWNPPRP was -0.219.

On to RRIRARPPRLPRPRPRPKKKPRP, for which the “shrunken log2 fold change” value came to 0.119.

For RRIRTRPPRLPRPRPRPVMGPRP, the “shrunken log2 fold change” value is -0.0279. The value for RRIRARPPRLPRPRPRPYVYPRP was -0.182; that for RRIRKRPPRLPRPRPRPGDQPRP was -0.00987. The figure for RRIRLRPPRLPRPRPRPVIQPRP is -0.0903; for RRIRLRPPRLPRPRPRPIQGPRP it is -0.226; for RRIRSRPPRLPRPRPRPLPIPRP it is 0.0503.
